Data published in the RNAGym collection of RNA variant scans (doi:10.7554/elife.80360).

B1: Twister Ribozyme (parent)
chain: AACACUGCCAAUGCCGGUCCCAAGCCCGGAUAAAAGUGGAGGGGGCGG

Variants of: B1
Assay: self-cleavage, relative activity (ratio to wild type); higher = more cleavage; co-transcriptional

Variant | self-cleavage
C46A G47U | 0.832
C46A G47A | 1.03
C46A G47C | 0.952
G42U G48C | 0.571
G44A C46G | 0.895
G44A C46U | 0.988
G44A C46A | 0.878
G45C G48U | 0.577
G45C G48A | 0.628
G45C G48C | 0.89
G43C G45A | 0.294
G44C G45C | 0.54
G44C G45U | 0.483
G45C G47C | 0.427
G45C G47U | 0.177
C46U G48C | 1.1
G43C G44U | 0.455
G44U G45C | 0.609
G45A G47A | 0.71

Variant | self-cleavage
G47U G48C | 1.36
G43C C46U | 0.214
G43C G48A | 0.198
G43C G48C | 0.219
G44U G48A | 0.717
G45U C46U | 0.669
G45U C46G | 0.52
G44C G47A | 0.371
G44C G47C | 0.353
G43U G45C | 0.271
G44A G48U | 1.08
G44A G48C | 1.11
G44U G47C | 0.523
G44U G47A | 0.758
G47A G48U | 1.47
G45C C46U | 0.544
G45A G48C | 1.02
G44A G47A | 0.867
G44C G48A | 0.289

Variant | self-cleavage
C46U G47U | 1.02
G43A G47A | 0.237
G43A G47C | 0.208
G42U G47A | 0.242
C46G G48C | 1.55
C46G G48U | 1.52
C46G G48A | 1
C46G G47C | 0.981
G45U G47A | 0.771
G43A G45C | 0.434
G43A C46A | 0.334
G44C C46U | 0.732
G47C G48C | 0.799
G47C G48U | 0.4
G43C G47C | 0.159
G43C G47A | 0.138
G43C G47U | 0.13
C46A G48C | 0.995
G44A G45U | 1.11
